The source of these data is article PMC10402096 (bioRxiv, 2023).

In test [1] the target is recombinant 6His-TTLL12 (Tubulin Tyrosine Ligase-Like 12) (UniProt Q14166). Put plainly: pull-down.
The target of another test is T1, recombinant GST-Rab19 (UniProt A4D1S5 1-217).
T1 sequence (looked up): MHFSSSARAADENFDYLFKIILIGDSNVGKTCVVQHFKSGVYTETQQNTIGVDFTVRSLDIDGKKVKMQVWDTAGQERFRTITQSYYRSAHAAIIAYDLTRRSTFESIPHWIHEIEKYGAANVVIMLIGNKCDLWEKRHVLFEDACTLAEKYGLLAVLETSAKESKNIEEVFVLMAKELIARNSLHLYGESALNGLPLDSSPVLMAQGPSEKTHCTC
Put plainly: pull-down.

For “purified porcine brain tubulin (α/β-tubulin heterodimer, kept unpolymerized at 4°C) (from UniProt P02550 1-451; P02554 1-445) (complex)”, in test [1], the fold increase in tubulin co-precipitation with Ni-beads when TTLL12 is present came to 3 fold.

B1: recombinant 6His-TTLL12 (Tubulin Tyrosine Ligase-Like 12) (natural protein, UniProt Q14166 1-644, looked up)
chain: MEAERGPERRPAERSSPGQTPEEGAQALAEFAALHGPALRASGVPERYWGRLLHKLEHEVFDAGEVFGIMQVEEVEEEEDEAAREVRKQQPNPGNELCYKVIVTRESGLQAAHPNSIFLIDHAWTCRVEHARQQLQQVPGLLHRMANLMGIEFHGELPSTEAVALVLEEMWKFNQTYQLAHGTAEEKMPVWYIMDEFGSRIQHADVPSFATAPFFYMPQQVAYTLLWPLRDLDTGEEVTRDFAYGETDPLIRKCMLLPWAPTDMLDLSSCTPEPPAEHYQAILEENKEKLPLDINPVVHPHGHIFKVYTDVQQVASSLTHPRFTLTQSEADADILFNFSHFKDYRKLSQERPGVLLNQFPCENLLTVKDCLASIARRAGGPEGPPWLPRTFNLRTELPQFVSYFQQRERWGEDNHWICKPWNLARSLDTHVTKSLHSIIRHRESTPKVVSKYIESPVLFLREDVGKVKFDIRYIVLLRSVRPLRLFVYDVFWLRFSNRAFALNDLDDYEKHFTVMNYDPDVVLKQVHCEEFIPEFEKQYPEFPWTDVQAEIFRAFTELFQVACAKPPPLGLCDYPSSRAMYAVDLMLKWDNGPDGRRVMQPQILEVNFNPDCERACRYHPTFFNDVFSTLFLDQPGGCHVTCLV
With B1, the “fold increase in TTLL12 binding against the GST-only control” value with recombinant GST-Rab19 is approximately 5 fold.
